Test results from the supplement of paper PMC10567573.

B1: ZNF449 (parent)
chain: CTHCSKSFRQRAGLIMHQVTHFRG
B2: CCDC6 (parent)
chain: ASVTIQARAEQEEEFISNTLFKKI

Variants of: B1
Assay: protein stability index of a GFP-peptide fusion (GPS, HEK-293T) (PSI 1-6); higher = more stable
Settings: c terminus: a fixed tail appended
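Also: lentivirally expressed fusions sorted by FACS into six bins by GFP to DsRed ratio, PSI derived from sequencing read proportions per bin multiplied by bin number.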

Protein stability index of substitutions, site by site:
H21: K 2.28, L 1.97, M 2.56, P 1.49, Q 1.35, R 1.85, S 1.29, T 1.47, V 1.91, W 2.41, Y 1.4
F22: A 1.72, C 3.06, D 2.37, E 1.98, G 2.61, H 3.29, I 1.92, K 2.06, L 1.93, M 2.18, N 2.39, P 1.58, Q 2.5, R 3.58, S 2.2, T 1.98, V 2.14, W 1.08, Y 2.45
R23: A 2.97, C 2.56, D 2.49, E 2.93, F 3.33, G 2.37, H 1.62, I 3.44, K 2.7, L 3.36, M 2.44, N 2.15, P 2.69, Q 2.6, S 2.07, T 2.03, V 3.18, W 3.55, Y 2.36
G24: A 2.82, C 2.53, D 3.59, E 2.88, F 2.68, H 2.17, I 2.44, K 3.01, L 3.55, M 2.81, N 2.91, P 3.29, Q 3.19, R 2.29, S 2.33, T 2.69, V 3.46, W 3.25, Y 2.41

Variants of: B2
Assay: as above
Settings: c terminus: a fixed tail appended

Protein stability index: each site, then its substitutions
A1: C 3.07, D 4.27, E 4.39, F 2.08, G 3.98, H 3.85, I 1.84, K 3.68, L 2.48, M 3.1, N 3.78, P 3.59, Q 4.09, R 3.51, S 3.75, T 3.85, V 2.56, W 1.86, Y 2.27
S2: A 4.01, C 2.84, D 4.58, E 4.11, F 2.11, G 3.92, H 3.17, I 3.08, K 3.38, L 2.32, M 2.81, N 3.99, P 4.25, Q 3.71, R 3.35, T 3.33, V 2.73, W 2.37, Y 2.19
V3: A 4.51, C 1.9, D 4.89, E 4.86, F 3.44, G 4.44, H 4.1, I 3.09, K 4.33, L 3.84, M 3.5, N 4.6, P 4.5, Q 4.42, R 3.9, S 4.38, T 4.57, W 3.32, Y 3.42
T4: A 4.46, C 3.52, D 4.17, E 4.41, F 2.44, G 3.63, H 3.61, I 3.33, K 3.29, L 3.21, M 3.2, N 3.98, P 4.32, Q 3.74, R 3.14, S 3.86, V 2.88, W 2.06, Y 2.56
I5: A 4.34, C 4.5, D 4.84, E 4.58, F 3.96, G 4.75, H 4.32, K 4.65, L 3.84, M 4.29, N 4.49, P 4.7, Q 5.03, R 4.44, S 4.24, T 4.28, V 4, W 3.66, Y 3.73
Q6: A 3.47, C 2.81, D 4.32, E 4.26
